# Patent US20250282879A1 (CILAG GMBH INTERNATIONAL, published 2025)
# T1: human IL-31-His (human, UniProt Q6EBC2 24-164)
# T1 construct: captured via an anti-His tag antibody; also called human IL-31 (scFv SPR); not shown: His tag
# T1 sequence (looked up): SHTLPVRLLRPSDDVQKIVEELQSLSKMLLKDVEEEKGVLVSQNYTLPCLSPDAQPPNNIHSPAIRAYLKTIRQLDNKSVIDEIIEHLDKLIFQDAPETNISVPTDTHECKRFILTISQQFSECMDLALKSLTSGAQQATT
# Biological target: T1, human IL-31-His
# Test: SPR, IL-31-His captured, scFv analyte (30 and 10 nM)
# Method: Affinity of the two humanized scFvs to human and cynomolgus IL-31 was determined by SPR analysis on a T200 device (Biacore, GE Healthcare). Cynomolgus IL-31 was manufactured on demand by Sino Biological since it was not available commercially. Human and cynomolgus IL-31-His was captured via an anti-His tag antibody coupled to a carboxylmethylated dextran surface and the scFvs were injected as analyte. After each analyte injection cycle the sensor chip was regenerated and new antigen was captured. The scFvs were measured using a dose response multi-cycle kinetic assay in a high-throughput mode with two concentrations (30 and 10 nM) diluted in running buffer. Obtained sensorgrams were fitted using a 1:1 binding model.
# Affinity of PRO1643 and of the optimized anti-IL-31 scFvs to human IL-31 was determined by SPR analysis on a T200 device (Biacore, GE Healthcare), as described above in section 2.2.2. The scFvs were measured using a dose response multi-cycle kinetic assay in a high-throughput mode with two concentrations (30 and 10 nM) diluted in running buffer. Obtained sensorgrams were fitted using a 1:1 binding model.
Kd [nM],koff [s⁻¹],kon [M⁻¹ s⁻¹],Binder
0.907,0.000599,661000,"PRO1900 (scFv, V domains shown, anti-IL-31 scFv; VL entry ends with LCDR3 (no FR4); also called 50-09-D07-sc04) VH: QSQLVESGGGRVQPGGSLRLSCAASGFSFSANYWICWVRQAPGKGLEWIVCIYIGSRADTYYAPWAKGRFTISKDNSKNTVYLQMNSLRAEDTATYFCARFSSGIYDLDRFFLWGQGTQVTVSS V domain: AFQLTQSPSSLSASVGDRVTITCQASQSIDSWLAWYQQKPGKPPKLLIYQASKLASGVPSRFSGSGSGTDYTLTISSLQPEDFATYYCQTYYGGGHIGWGFGTGTKVTV"
1.22,0.000638,524000,"PRO1903 (scFv, V domains shown, anti-IL-31 scFv (VL D32E against sc03); Printed VL entry has no FR4; also called 50-09-D07-sc07) VH: QSQLVESGGGLVQPGGSLRLSCAASGFSFSANYWICWVRQAPGKGLEWIVCIYIGSRADTYYAPWAKGRFTISKDNSKNTVYLQMNSLRAEDTAVYFCARFSSGIYDLDRFFLWGQGTLVTVSS V domain: AFQLTQSPSSLSASVGDRVTITCQASQSIESWLAWYQQKPGKPPKLLIYQASKLASGVPSRFSGSGSGTDYTLTISSLQPEDFATYYCQTYYGGGHIGWGFGTGTKVTV"
